# Key:
# [1] = biological target: Prototype foamy virus integrase (PFV IN) wild type, tetrameric intasome (Prototype foamy virus) (UniProt P14350); conditions: smTIRF lifetime at physiological buffer; searches 1.6 kb; integration rare
# [2] = biological target: Prototype foamy virus integrase (PFV IN) wild type, tetrameric intasome (Prototype foamy virus) (UniProt P14350); conditions: smTIRF FRET, stalling at gap; 110 mM NaCl, 2 mM MgSO4, 24 C
Substance,binding [1] [s],binding (% of search events with integration) [2]
23 kb naked linear DNA,2.1,
60 bp target DNA with 1 or 2 base gap,,20

# — US20240425828
